The values that follow come from patent US20200048358A1 (ALLIGATOR BIOSCIENCE, published 2020).

The target of assay [1] is T1, chimeric OX40 construct 1548: Human OX40 with mouse module 3 and domains 4A and 4B (aa 108-167) (human; mouse, UniProt P47741 104-165).
T1 construct: domain: module 3 and domains 4A and 4B; On 293-F cells; limits derived as for 1544
T1 sequence: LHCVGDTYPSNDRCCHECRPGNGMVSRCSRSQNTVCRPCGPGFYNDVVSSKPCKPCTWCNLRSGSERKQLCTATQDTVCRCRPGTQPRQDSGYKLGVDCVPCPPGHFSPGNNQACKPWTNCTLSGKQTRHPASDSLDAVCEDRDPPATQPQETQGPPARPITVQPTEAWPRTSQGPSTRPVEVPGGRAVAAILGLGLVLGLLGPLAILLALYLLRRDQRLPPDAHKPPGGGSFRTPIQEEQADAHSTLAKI
Description: flow cytometry, transfected 293-F cells. The method, then: The mouse/human chimeras were transiently transfected into FreeStyle 293-F cells (Invitrogen), incubated 48 hours in FreeStyle 293 expression medium (Invitrogen) 37 C, 8% CO₂, 135 rpm. The transfected cells were incubated with human OX40 antibodies, human OX40L (hOX40L, RnD Systems), mouse OX40L (mOX40L, RnD Systems) and controls for 30 min 4° C. and then detected with a-huIgG-PE (Jackson lmmunoresearch) 30 min 4° C. Cells were analyzed with FACS Verse (BD Biosciences). Binding to the different chimeric constructs were calculated as relative (mean fluorescence intensity) MFI compared to the binding of the isotype control.
In general terms: In flow cytometry, cells or beads pass a laser one at a time.

Assay [2] addresses T2, CTLA4-Fc (Fitzgerald, #30R-CD152) (human, UniProt P16410 38-152, biotinylated where used as soluble reagent in the inhibition ELISAs).
T2 construct: Bought reagent; also called human CTLA-4 (Fitzgerald); biotinylated-CTLA4
Briefly: binding ELISA; ratio [EC50 for CD28-Fc]/[EC50 for CTLA4-Fc]. Here is the method:
96-well flat bottom high binding plates (Greiner, #655074) were coated with either CTLA4-Fc (Fitzgerald, #30R-CD152) or CD28-Fc (R&D systems, 342-CD) by incubating overnight at 4° C. […] The plates were washed again and sample or controls (serially diluted 1/5 from 200-0.001 μg/ml) were added to the wells. The samples were incubated for 1 h at room temperature and then washed. Detection antibody, goat-anti-human IgG Fcγ-HRP (Jackson, #109-035-098) was added and the plates were subsequently developed using SuperSignal Pico Chemiluminescent substrate (Thermo Scientific, #37069) and detected with an Envision reader (Perkin Elmer). EC50 values were calculated for both CTLA4 and CD28. The binding ratio (EC50 binding ratio=[EC50 for CD28]÷[EC50 for CTLA-4]) was calculated for each polypeptide and is shown in Table 1.1.

Assay [3] addresses T2, CTLA4-Fc (Fitzgerald, #30R-CD152). Description: SPR (Biacore); ratio [Kd for CD28]/[Kd for CTLA-4]. The method, then:
Either CTLA4-Fc (Fitzgerald, #30R-CD152) or CD28-Fc (R&D Systems, 342-CD) was immobilized to the Biacore™ sensor chip, CM5, using conventional amine coupling. […] The association was followed for 3 minutes and the dissociation for 10 minutes. Regeneration was performed twice using 5 mM NaOH for 30 seconds. The kinetic parameters and the affinity constants were calculated using BIAevaluation 4.1 software (Table 1.3).
For orientation: SPR reads the build-up and loss of mass on a sensor chip optically.

T2 sequence (P16410 38-152 limits assumed): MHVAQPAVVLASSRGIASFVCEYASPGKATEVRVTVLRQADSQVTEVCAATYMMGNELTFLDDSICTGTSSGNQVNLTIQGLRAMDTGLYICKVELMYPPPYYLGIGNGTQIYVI

B1: anti-OX40 antibody 1490/1135 (antibody, V domains shown)
VH: EVQLLESGGGLVQPGGSLRLSCAASGFTFSSYAMSWVRQAPGKGLEWVSGISYYGGYTYYADSVKGRFTISRDNSKNTLYLQMNSLRAEDTAVYYCARYYPHHYIDYWGQGTLVTVSS
VL: not shown
notes: Tested as IgG
Take B1: in assay [1], the “relative MFI compared to isotype control” value was found to be 1.1.

B2: human wild-type CD86 (monomeric soluble extracellular domain), sample 'Wild type' (ligand)
chain: APLKIQAYFNETADLPCQFANSQNQSLSELVVFWQDQENLVLNEVYLGKEKFDSVHSKYMGRTSFDSDSWTLRLHNLQIKDKGLYQCIIHHKKPTGMIRIHQMNSELSVLA
notes: also called wild type protein
Regarding B2, the EC50 binding ratio in assay [2] was found to be 3.4. Also, in assay [3], the Kd binding ratio came out at 1.6.

B3: anti-OX40 antibody 1166/1167 (antibody, V domains shown)
VH: EVQLLESGGGLVQPGGSLRLSCAASGFTFGGYYMSWVRQAPGKGLEWVSAISGSGGSTYYADSVKGRFTISRDNSKNTLYLQMNSLRAEDTAVYYCARYDYASMDYWGQGTLVTVSS
VL: DIQMTQSPSSLSASVGDRVTITCRASQSISSYLNWYQQKPGKAPKLLIYAASSLQSGVPSRFSGSGSGTDFTLTISSLQPEDFATYYCQQYYWYGLSTFGQGTKLEIK
notes: also called monospecific OX40 antibody
On to B3, for which the “relative MFI compared to isotype control” value in assay [1] is 15.8.

B4: anti-OX40 antibody 1170/1171 (antibody, V domains shown)
VH: EVQLLESGGGLVQPGGSLRLSCAASGFTFGGYYMSWVRQAPGKGLEWVSYIPGSGGSTYYADSVKGRFTISRDNSKNTLYLQMNSLRAEDTAVYYCARYDYYWMDYWGQGTLVTVSS
VL: DIQMTQSPSSLSASVGDRVTITCRASQSISSYLNWYQQKPGKAPKLLIYAASSLQSGVPSRFSGSGSGTDFTLTISSLQPEDFATYYCQQGHGSYPHTFGQGTKLEIK
notes: Tested as IgG
Take B4: the “relative MFI compared to isotype control” value in assay [1] turned out to be 20.3.

B5: anti-OX40 antibody 1514/1515 (antibody, V domains shown)
VH: EVQLLESGGGLVQPGGSLRLSCAASGFTFGYYYMSWVRQAPGKGLEWVSGISSYGSYTYYADSVKGRFTISRDNSKNTLYLQMNSLRAEDTAVYYCARSGYSNWANSFDYWGQGTLVTVSS
VL: DIQMTQSPSSLSASVGDRVTITCRASQSISSYLNWYQQKPGKAPKLLIYAASSLQSGVPSRFSGSGSGTDFTLTISSLQPEDFATYYCQQGDYTLFTFGQGTKLEIK
notes: Tested as IgG
For B5, the “relative MFI compared to isotype control” value in assay [1] came out at 17.2.

B6: CD86 mutant 910 (ligand)
chain: LKIQAYFNETADLPCQFANSQNQSLSELVVFWQDQENLVLNEVYLGKEKFDSVDSKYMGRTSFDSDSWTLRLHNLQIKDKGIYQCIIHHKKPTGMVKIHEMNSELSVLA
notes: Variant of the soluble extracellular domain of human CD86
B6: in assay [2], the EC50 binding ratio is 7.7. Moreover, the Kd binding ratio in assay [3] came out at 5.1.

B7: CD86 mutant 906 (ligand)
chain: LKIQAYINETADLPCQFANSQNLSLSELVVFWQDQENLVLNEVYLGKERFDSVDSKYMGRTSFDSDSWTLRLHNLQIKDKGFYQCIIHHKKPTGLVKIHEMNSELSVLA
notes: as for B6
As to B7, in assay [2], the EC50 binding ratio is 16.2. The Kd binding ratio in assay [3] came out at 0.8.

B8: CD86 mutant 900 (ligand)
chain: LKIQAYFNETADLPCQFANSQNQSLSELVVFWQDQENLVLNEVYLGKEKFDSVDSKYMGRTSFDSDSWTLRLHNLQIKDKGIYQCVIHHKKPSGLVKIHEMNSELSVLA
notes: as for B6
For the molecule B8, in assay [2], the EC50 binding ratio came out at 3.5.

B9: CD86 mutant 915 (ligand)
chain: LKIQAYFNETADLPCQFANSQNQSLSELVVFWQDQENLILNEVYLGKEKFDSVDSKYMGRTSFDSDSWTLRLHNLQIKDKGFYQCIIHHKKPSGLIKIHQMDSELSVLA
notes: as for B6
With B9, the EC50 binding ratio in assay [2] amounted to 9.9. Further, the Kd binding ratio in assay [3] amounted to 1.9.

B10: CD86 mutant 904 (ligand)
chain: LKIQAYFNETADLPCQFANSQNQSLSELIVFWQDQENLVLNEVYLGKERFDAVDSKYMGRTSFDSDSWTLRLHNLQIKDKGIYQCIIHHKKPSGMVKIHQMDSELSVLA
notes: as for B6
Take B10: in assay [2], the EC50 binding ratio was 12.2. Moreover, in assay [3], the Kd binding ratio came out at 6.8.

B11: CD86 mutant 908 (ligand)
chain: LKIQAYFNETADLPCQFANSQNQSLSELVVFWQDQENLVLNEVYLGKEKFDSVHSKYMGRTSFDSDSWTLRLHNLQIKDKGIYQCIIHHKKPTGMVKIHEMNSELSVLA
notes: as for B6
As to B11, the EC50 binding ratio in assay [2] is 6.2. Further, the Kd binding ratio in assay [3] was found to be 4.7.

B12: CD86 mutant 938 (ligand)
chain: LKIQAYFNETADLPCQFANSQNQSLSELVVFWQDQENLILNEVYLGKEKFDSVHSKYMGRTSFDSDSWTLRLHNLQIKDKGIYQCIIHHKKPTGMVKIHQMNSELSVLA
notes: as for B6
In the case of B12, the EC50 binding ratio in assay [2] came to 2. Besides, the Kd binding ratio in assay [3] was found to be 5.5.

B13: CD86 mutant 907 (ligand)
chain: LKIQAYFNETADLPCQFANSQNQSLSELVVFWQDQENLVLNEVYLGKEKFDSVHSKYMGRTSFDSDSWTLRLHNLQIKDKGLYQCIIHHKKPTGMIKIHEMNSELSVLA
notes: as for B6
With B13, the EC50 binding ratio in assay [2] turned out to be 30.5. The Kd binding ratio in assay [3] was 5.6.

B14: CD86 mutant 901 (ligand)
chain: LKIQAYFNETADLPCQFANSQNLTLSELVVFWQDQENLVLNEVYLGKEKFDSVHSKYMGRTSFDSDSWTLRLHNLQIKDKGIYQCVIHHKKPTGMIKIHEMNSELSVLT
notes: as for B6
Regarding B14, in assay [2], the EC50 binding ratio was 17.2. Further, the Kd binding ratio in assay [3] was found to be 2.7.
